# Data reported in patent US20250257110A1.
# Molecular target: TAG72 antigen (tumor associated glycoprotein-72)
# Assay: method not stated; scFv affinity toward TAG72 antigen
substance,measurement,value
original humanized CC49 scFv (IDEC),Kd,33 nM
